Results taken from patent US8703459B2, “Catalytic domains of beta(1,4)-galactosyltransferase I having altered metal ion specificity” (The United States of America, as represented by the …, priority 2003, dated 2014).
Where two headings read alike, the source gives them in different places. Marks after values point to notes of the source that are not given here. Blank lines part the entries; values can stand above or below the molecule they belong to.

Columns and labels:
β4Gal-T1 = target: T1, β4Gal-T1 (Bos taurus, UniProt P08037); details: read-out: Km value of the acceptor; cited from earlier work
T1 sequence (P08037 1-402): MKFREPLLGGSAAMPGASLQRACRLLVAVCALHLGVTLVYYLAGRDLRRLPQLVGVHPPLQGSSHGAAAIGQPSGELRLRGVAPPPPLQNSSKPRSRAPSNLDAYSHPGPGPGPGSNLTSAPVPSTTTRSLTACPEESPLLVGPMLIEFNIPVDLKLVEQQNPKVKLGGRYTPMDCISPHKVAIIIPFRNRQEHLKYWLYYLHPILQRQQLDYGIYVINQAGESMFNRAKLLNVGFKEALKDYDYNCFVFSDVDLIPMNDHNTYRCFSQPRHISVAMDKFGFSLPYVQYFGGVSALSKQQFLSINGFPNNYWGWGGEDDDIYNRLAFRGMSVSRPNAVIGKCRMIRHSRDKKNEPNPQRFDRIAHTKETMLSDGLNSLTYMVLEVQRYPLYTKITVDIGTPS

M344H-Gal-T1 = target: T2, M344H-Gal-T1 (Bos taurus, UniProt P08037, C342T/M344H); assay: Acceptor substrate inhibition of M344H-Gal-T1 catalytic activity; assay type: biochemical, bovine; details: in the presence of Mn^2+ (5 mM in FIG. 7c)
T2 construct: codes for residues 130 to 402 of bovine Gal-T1; made in house; host or cells: E. coli BL21(DE3) pLysS (pET23a derivative pEGT-d129)
T2 sequence (P08037 130-402 C342T/M344H): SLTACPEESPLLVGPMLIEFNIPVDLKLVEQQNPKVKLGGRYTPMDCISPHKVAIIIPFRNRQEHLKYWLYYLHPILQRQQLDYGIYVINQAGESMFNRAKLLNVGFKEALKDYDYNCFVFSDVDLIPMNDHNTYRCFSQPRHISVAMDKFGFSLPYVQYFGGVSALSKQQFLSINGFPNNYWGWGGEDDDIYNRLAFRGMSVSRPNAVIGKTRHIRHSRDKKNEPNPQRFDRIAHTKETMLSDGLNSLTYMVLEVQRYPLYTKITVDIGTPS
Method: (§1) FIG. 7 depicts the effect of GlcNAc concentration on Gal-T activity of the M344H-Gal-T1 mutant (a) and wild-type enzyme, C342T-Gal-T1 (b), at different fixed concentrations of Mn^2+: (a) (●) 6 μM, (O) 20 μM, (▾) 0.5 mM, (open triangle) 1.5 mM, and (▪) 5 mM and (b) (●) 6 μM, (open triangle) 80 μM, (▪) 0.5 mM, (▴) 1.5 mM, and (A) 5 mM. The activity of the mutant (a) is inhibited above 2-5 mM GlcNAc at any concentrations of Mn^2+, whereas the activity of the wild type (b) is inhibited at 25-30 mM GlcNAc and above 0.5 mM Mn^2+. (c) Effect of either GlcNAc, chitobiose, or β-benzyl-GlcNAc concentration on Gal-T activity of the mutant M344H-Gal-T1 in the presence of 5 mM Mn^2+. Arrows indicate the inhibition concentration for the respective curves. It is known that the disaccharide chitobiose binds strongly to the Gal-T1 compared to the monosaccharide GlcNAc. The higher the affinity of the acceptor substrate, the lower the required inhibition concentrations.
(§2) The inhibition of the M344H-Gal-T1 mutant with higher concentrations of the acceptor is independent of the concentration of Mn^2+ used in the assay (FIGS. 7A-C), while in the wild type, low concentrations of metal have no effect on acceptor inhibition (FIGS. 7A-C). […]

[1] = Metal ion activation curve, metal binding constants for Mn^2+; assay type: biochemical, bovine; details: with Mn^2+
Description: The activation curve of M344E-Gal-T1, using Mn^2+, is strikingly different from that of the wild-type enzyme (FIGS. 1A and 1B). In contrast to the wild type enzyme, the velocity curve obtained with the Mn^2+ concentration for the M344E-Gal-T1 mutant is not sigmoidal. On the other hand, the same curve for the M344H-Gal-T1 mutant in the presence of the Mg^2+ is sigmoidal (FIG. 1C). The observation that activation of the wild type enzyme by metal ions is sigmoidal has been interpreted as involving two metal binding sites in the enzyme: one with high affinity (Kd1), which is associated with low velocity, and a second site with low affinity (Kd2), which is associated with high velocity (Powell and Brew, J. Biol. Chem., 251:3645 (1976); Boeggeman and Qasba, Glycobiology, 12:395 (2002)). […] The values of the dissociation constant (Kd) for Mn^2+ of the mutant are quite different from that of the wild type (Table IV).
The enzyme activation data at various concentrations of Mg^2+ were fitted to an equation describing metal binding to a high affinity site (K1) to generate an enzyme form with a low kcat (V1) and to a second, lower affinity site (K2) to generate a form with a higher kcat (V2) (Boeggeman and Qasba, Glycobiology, 12:395 (2002)): […]

[2] = β4Gal-T enzyme assay, specific activity in the presence of various metal ions; assay type: biochemical, bovine
Method: Protein concentrations were measured using the Bio-Rad Protein Assay kit, based on the method of Bradford and further verified on SDS-PAGE gels using standard protein concentration markers. An in vitro assay procedure for Gal-T1 has been reported previously (Ramakrishnan et al., J. Mol. Biol., 310:205 (2001)). The activities were measured using UDP-Gal as sugar nucleotide donor, and GlcNAc as the acceptor sugar. For the specific activity measurements, a 100 μL incubation mixture containing 25 mM GlcNAc, 5 mM MnCl2 or MgCl2, 20 mM Tris-HCl pH 8.0, 500 μM UDP-Gal, 500 ng M344H-Gal-T1 or 30 ng of C342T-Gal-T1 and 0.5 μCi ^3H-UDP-Gal was used for each Gal-T reaction. The incubation was carried out at 30° C. for 15 minutes. The reaction was terminated by adding of 200 μl cold water, and the mixture was passed through a 0.5 mL bed volume column of AG 1-X8 […] resin (Bio-Rad) to remove any unreacted ^3H-UDP-Gal. The column was washed successively with 300, 400 and 500 μl of cold water, and the column flow-through was diluted with Biosafe scintillation fluid; radioactivity was measured with a Beckman counter. A reaction without the acceptor sugar was used as a control. Only 0.1 mM concentration of ZnCl2 or CoCl2 was used whenever Zn^2+ or Co^2+ was used during the enzyme assay.

[3] = Two-substrate kinetic analysis of galactose transfer; assay type: biochemical, bovine; details: with Mn^2+
Description: The true Km of the donor (KA) and of the acceptor (KB), the dissociation constant of the donor, Kia, and kcat, were obtained using two-substrate analyses and the primary plots of at least five concentrations of donor (UDP-Gal) and five concentrations of acceptor, and the corresponding secondary plots of the intercepts and slopes. Initial rate conditions were linear with respect to time. A suitable range of donor and acceptor concentrations was chosen, which allowed accurate Michaelis-Menten constants to be derived. The data were also analyzed for a general two-substrate system using the following equations (Herbert, Initial Rate Enzymatic Kinetics, Springer-Verlag, New York (1975)) with the software EnzFitter, a Biosoft non-linear curve fitting program for Windows:
[formula] Here ν is the initial velocity and the rate equation for a sequential symmetrical, initial velocity pattern associated with equation 1, an ordered or random equilibrium mechanism in which substrate A dissociates well from the ECS complex with a dissociation constant of Kia. Equation 2 is for an asymmetric initial velocity pattern for a double-displacement or “ping-pong” mechanism. The kinetic parameters KA, KB, Kia, and Vmax were obtained from the fitted curves using the above rate equations. The graphical method and EnzFitter program gave very similar kinetic parameters.
This is quite similar to that of the wild-type enzyme (FIG. 2B) (Takase and Ebner, Curr. Top. Cell Regul., 24:51 (1984); Boeggeman and Qasba, Glycobiology, 12:395 (2002)). […] Although the catalytic efficiency with respect to donor and acceptor, compared to the wild-type enzyme with Mn^2+, has decreased by an order of about 13 and 6, respectively, the turnover number of the mutant, kcat, is reduced by only 60%. The lesser effect on kcat could be the result of Mg^2+ participating more efficiently in the formation of the transition state complex during the transfer reaction by the mutant or minor differences in the coordination geometry of the Mg^2+ in the mutant compared to that of Mn^2+ ion in the wild-type enzyme. The crystal structure of the M344H-Gal-T1 in complex with UDP-Gal in the presence of either Mn^2+ or Mg^2+ was then determined and compared to the structure with the wild-type UDP-Gal.metal complex. Crystal structure analysis of the M344E-Gal-T1 mutant in the presence of UDP-Gal and Mn^2+ was conducted to further understand the effect of the M344E mutation on the metal-ion binding site.

[4] = Effect of the acceptor concentration on Gal-T activity of the enzyme; assay type: biochemical, bovine; details: in the presence of Mn^2+
Method: as §1, §2

[5] = 5 mM metal ion, 500 μM UDP-Gal, 25 mM GlcNAc

Molecule: CC(=O)N[C@H]1C(O)O[C@H](CO)[C@@H](O)[C@@H]1O (stereo partly drawn) [GlcNAc, N-acetylglucosamine]
Km (β4Gal-T1): 5 mM

Molecule: CC(=O)N[C@H]1[C@H](O[C@H]2[C@H](O)[C@@H](NC(C)=O)C(O)O[C@@H]2CO)O[C@H](CO)[C@@H](O)[C@@H]1O (stereo partly drawn) [chitobiose, βGlcNAc1-4GlcNAc]
inhibition of the catalytic activity of the M344H-Gal-T1 mutant by the acceptor (M344H-Gal-T1): at very low concentrations much more strongly than GlcNAc does
Km (β4Gal-T1): 1 mM

Molecule: CC(=O)N[C@H]1[C@H](OCc2ccccc2)O[C@H](CO)[C@@H](O)[C@@H]1O [β-benzyl-GlcNAc]
inhibition of the catalytic activity of the M344H-Gal-T1 mutant by the acceptor (M344H-Gal-T1): at very low concentrations much more strongly than GlcNAc does

Kd ([1]; read-out: metal ion Kd1): 30 µM
Kd ([1]; read-out: metal ion Kd2): 400 µM
activation of the enzyme by Mg^2+ ([2]; Mg^2+): does not activate
GlcNAc concentrations at which catalytic activity is inhibited [4]: 20 to 25 mM
GlcNAc concentrations at which catalytic activity is inhibited ([4]; listed as C342T-Gal-T1): 25 to 30 mM
B1: wild-type β4Gal-T1: residues 130 to 402 of bovine Gal-T1 with Cysteine to Threonine exchange at 342 (C342T), used as wild-type enzyme (protein, UniProt P08037 130-402, looked up, variant C342T)
chain: SLTACPEESPLLVGPMLIEFNIPVDLKLVEQQNPKVKLGGRYTPMDCISPHKVAIIIPFRNRQEHLKYWLYYLHPILQRQQLDYGIYVINQAGESMFNRAKLLNVGFKEALKDYDYNCFVFSDVDLIPMNDHNTYRCFSQPRHISVAMDKFGFSLPYVQYFGGVSALSKQQFLSINGFPNNYWGWGGEDDDIYNRLAFRGMSVSRPNAVIGKTRMIRHSRDKKNEPNPQRFDRIAHTKETMLSDGLNSLTYMVLEVQRYPLYTKITVDIGTPS
modifications: catalytic domain
notes: residues 130 to 402 of bovine Gal-T1 with Cysteine to Threonine exchange at 342 (C342T), used as wild-type enzyme
Catalytic Activity in the Presence of Various Metal Ions: Co ([2]; 0.1 mM Co^2+, 500 μM UDP-Gal, 25 mM GlcNAc): 0.41^b picomoles per minute per nanogram
Catalytic Activity in the Presence of Various Metal Ions: Zn ([2]; 0.1 mM Zn^2+, 500 μM UDP-Gal, 25 mM GlcNAc): 1.42 picomoles per minute per nanogram
Catalytic Activity in the Presence of Various Metal Ions: Ca [2, 5]: 0 picomoles per minute per nanogram
Catalytic Activity in the Presence of Various Metal Ions: Mg [2, 5]: 0 picomoles per minute per nanogram
Catalytic Activity in the Presence of Various Metal Ions: Mn [2, 5]: 5.35 picomoles per minute per nanogram
Catalytic Activity in the Presence of Various Metal Ions: Sr [2, 5]: 0 picomoles per minute per nanogram
GlcNAc KB (true Km of the acceptor) [3]: 10 mM
Kcat [3]: 3.6 s⁻¹
Kcat/KA [3]: 40000 M⁻¹ s⁻¹
Kia (dissociation constant of the donor) [3]: 0
UDP-Gal KA (true Km of the donor) [3]: 95(6) μM
UDP-Gal Vmax [3]: 6.4(4) pmol min^−1 ng^−1
